The series relates to GST-N571 (CIZ1 N-terminal fragment with PLD1 and PLD2) (Mus musculus). In words: EMSA. In general terms: In EMSA bound probe runs differently from free probe, usually more slowly.

Consider Xist repeat A sense, for which the K half turned out to be 200 nM.
For the substance Xist repeat E proximal (sense), the K half came to 100 nM.

Values taken from paper doi:10.1101/2020.11.10.376558.
